Patent US20210388087A1 (Chugai, published 2021)

B1: CE115HA000/GLS3000 G91P (antibody, IgG1, name in Kabat numbering, V domains shown)
VH: QVQLVESGGGVVQPGRSLRLSCAASGFTFSNAWMHWVRQAPGKGLEWVAQIKAKSNNYATYYAESVKGRFTISRDDSKNSLYLQMNSLKTEDTAVYYCRYVHYGAYYGVDAWGQGTTVTVSS
VL: DIVMTQSPLSLPVTPGEPASISCRSSQSLVHSNRNTYLHWYQQKPGQAPRLLIYKVSNRFSGVPDRFSGSGSGTDFTLKISRVEAEDVGVYYCGQPTQVPYTFGQGTKLEIK
notes: one-arm IgG1
B2: CE115HA000/GLS3000 H27dT (antibody, IgG1, name in Kabat numbering, V domains shown)
VH: QVQLVESGGGVVQPGRSLRLSCAASGFTFSNAWMHWVRQAPGKGLEWVAQIKAKSNNYATYYAESVKGRFTISRDDSKNSLYLQMNSLKTEDTAVYYCRYVHYGAYYGVDAWGQGTTVTVSS
VL: DIVMTQSPLSLPVTPGEPASISCRSSQSLVTSNRNTYLHWYQQKPGQAPRLLIYKVSNRFSGVPDRFSGSGSGTDFTLKISRVEAEDVGVYYCGQGTQVPYTFGQGTKLEIK
notes: one-arm IgG1
B3: CE115HA000/GLS3000 H27dK (antibody, IgG1, name in Kabat numbering, V domains shown)
VH: QVQLVESGGGVVQPGRSLRLSCAASGFTFSNAWMHWVRQAPGKGLEWVAQIKAKSNNYATYYAESVKGRFTISRDDSKNSLYLQMNSLKTEDTAVYYCRYVHYGAYYGVDAWGQGTTVTVSS
VL: DIVMTQSPLSLPVTPGEPASISCRSSQSLVKSNRNTYLHWYQQKPGQAPRLLIYKVSNRFSGVPDRFSGSGSGTDFTLKISRVEAEDVGVYYCGQGTQVPYTFGQGTKLEIK
notes: one-arm IgG1
B4: CE115HA000/GLS3000 H27dY (antibody, IgG1, name in Kabat numbering, V domains shown)
VH: QVQLVESGGGVVQPGRSLRLSCAASGFTFSNAWMHWVRQAPGKGLEWVAQIKAKSNNYATYYAESVKGRFTISRDDSKNSLYLQMNSLKTEDTAVYYCRYVHYGAYYGVDAWGQGTTVTVSS
VL: DIVMTQSPLSLPVTPGEPASISCRSSQSLVYSNRNTYLHWYQQKPGQAPRLLIYKVSNRFSGVPDRFSGSGSGTDFTLKISRVEAEDVGVYYCGQGTQVPYTFGQGTKLEIK
notes: one-arm IgG1
B5: CE115HA000/GLS3000 H27dE (antibody, IgG1, name in Kabat numbering, V domains shown)
VH: QVQLVESGGGVVQPGRSLRLSCAASGFTFSNAWMHWVRQAPGKGLEWVAQIKAKSNNYATYYAESVKGRFTISRDDSKNSLYLQMNSLKTEDTAVYYCRYVHYGAYYGVDAWGQGTTVTVSS
VL: DIVMTQSPLSLPVTPGEPASISCRSSQSLVESNRNTYLHWYQQKPGQAPRLLIYKVSNRFSGVPDRFSGSGSGTDFTLKISRVEAEDVGVYYCGQGTQVPYTFGQGTKLEIK
notes: one-arm IgG1
B6: CE115HA000/GLS3000 H27dP (antibody, IgG1, name in Kabat numbering, V domains shown)
VH: QVQLVESGGGVVQPGRSLRLSCAASGFTFSNAWMHWVRQAPGKGLEWVAQIKAKSNNYATYYAESVKGRFTISRDDSKNSLYLQMNSLKTEDTAVYYCRYVHYGAYYGVDAWGQGTTVTVSS
VL: DIVMTQSPLSLPVTPGEPASISCRSSQSLVPSNRNTYLHWYQQKPGQAPRLLIYKVSNRFSGVPDRFSGSGSGTDFTLKISRVEAEDVGVYYCGQGTQVPYTFGQGTKLEIK
notes: one-arm IgG1
B7: CE115HA000/GLS3000 G91Y (antibody, IgG1, name in Kabat numbering, V domains shown)
VH: QVQLVESGGGVVQPGRSLRLSCAASGFTFSNAWMHWVRQAPGKGLEWVAQIKAKSNNYATYYAESVKGRFTISRDDSKNSLYLQMNSLKTEDTAVYYCRYVHYGAYYGVDAWGQGTTVTVSS
VL: DIVMTQSPLSLPVTPGEPASISCRSSQSLVHSNRNTYLHWYQQKPGQAPRLLIYKVSNRFSGVPDRFSGSGSGTDFTLKISRVEAEDVGVYYCGQYTQVPYTFGQGTKLEIK
notes: one-arm IgG1
B8: CE115HA000/GLS3000 H27dS (antibody, IgG1, name in Kabat numbering, V domains shown)
VH: QVQLVESGGGVVQPGRSLRLSCAASGFTFSNAWMHWVRQAPGKGLEWVAQIKAKSNNYATYYAESVKGRFTISRDDSKNSLYLQMNSLKTEDTAVYYCRYVHYGAYYGVDAWGQGTTVTVSS
VL: DIVMTQSPLSLPVTPGEPASISCRSSQSLVSSNRNTYLHWYQQKPGQAPRLLIYKVSNRFSGVPDRFSGSGSGTDFTLKISRVEAEDVGVYYCGQGTQVPYTFGQGTKLEIK
notes: one-arm IgG1
B9: CE115HA000/GLS3000 H27dR (antibody, IgG1, name in Kabat numbering, V domains shown)
VH: QVQLVESGGGVVQPGRSLRLSCAASGFTFSNAWMHWVRQAPGKGLEWVAQIKAKSNNYATYYAESVKGRFTISRDDSKNSLYLQMNSLKTEDTAVYYCRYVHYGAYYGVDAWGQGTTVTVSS
VL: DIVMTQSPLSLPVTPGEPASISCRSSQSLVRSNRNTYLHWYQQKPGQAPRLLIYKVSNRFSGVPDRFSGSGSGTDFTLKISRVEAEDVGVYYCGQGTQVPYTFGQGTKLEIK
notes: one-arm IgG1
B10: CE115HA000/GLS3000 H27dW (antibody, IgG1, name in Kabat numbering, V domains shown)
VH: QVQLVESGGGVVQPGRSLRLSCAASGFTFSNAWMHWVRQAPGKGLEWVAQIKAKSNNYATYYAESVKGRFTISRDDSKNSLYLQMNSLKTEDTAVYYCRYVHYGAYYGVDAWGQGTTVTVSS
VL: DIVMTQSPLSLPVTPGEPASISCRSSQSLVWSNRNTYLHWYQQKPGQAPRLLIYKVSNRFSGVPDRFSGSGSGTDFTLKISRVEAEDVGVYYCGQGTQVPYTFGQGTKLEIK
notes: one-arm IgG1
B11: CE115HA000/GLS3000 H27dA (antibody, IgG1, name in Kabat numbering, V domains shown)
VH: QVQLVESGGGVVQPGRSLRLSCAASGFTFSNAWMHWVRQAPGKGLEWVAQIKAKSNNYATYYAESVKGRFTISRDDSKNSLYLQMNSLKTEDTAVYYCRYVHYGAYYGVDAWGQGTTVTVSS
VL: DIVMTQSPLSLPVTPGEPASISCRSSQSLVASNRNTYLHWYQQKPGQAPRLLIYKVSNRFSGVPDRFSGSGSGTDFTLKISRVEAEDVGVYYCGQGTQVPYTFGQGTKLEIK
notes: one-arm IgG1
B12: CE115HA000/GLS3000 H27dI (antibody, IgG1, name in Kabat numbering, V domains shown)
VH: QVQLVESGGGVVQPGRSLRLSCAASGFTFSNAWMHWVRQAPGKGLEWVAQIKAKSNNYATYYAESVKGRFTISRDDSKNSLYLQMNSLKTEDTAVYYCRYVHYGAYYGVDAWGQGTTVTVSS
VL: DIVMTQSPLSLPVTPGEPASISCRSSQSLVISNRNTYLHWYQQKPGQAPRLLIYKVSNRFSGVPDRFSGSGSGTDFTLKISRVEAEDVGVYYCGQGTQVPYTFGQGTKLEIK
notes: one-arm IgG1
B13: CE115HA000/GLS3000 G91T (antibody, IgG1, name in Kabat numbering, V domains shown)
VH: QVQLVESGGGVVQPGRSLRLSCAASGFTFSNAWMHWVRQAPGKGLEWVAQIKAKSNNYATYYAESVKGRFTISRDDSKNSLYLQMNSLKTEDTAVYYCRYVHYGAYYGVDAWGQGTTVTVSS
VL: DIVMTQSPLSLPVTPGEPASISCRSSQSLVHSNRNTYLHWYQQKPGQAPRLLIYKVSNRFSGVPDRFSGSGSGTDFTLKISRVEAEDVGVYYCGQTTQVPYTFGQGTKLEIK
notes: one-arm IgG1
B14: CE115HA000/GLS3000 H27dF (antibody, IgG1, name in Kabat numbering, V domains shown)
VH: QVQLVESGGGVVQPGRSLRLSCAASGFTFSNAWMHWVRQAPGKGLEWVAQIKAKSNNYATYYAESVKGRFTISRDDSKNSLYLQMNSLKTEDTAVYYCRYVHYGAYYGVDAWGQGTTVTVSS
VL: DIVMTQSPLSLPVTPGEPASISCRSSQSLVFSNRNTYLHWYQQKPGQAPRLLIYKVSNRFSGVPDRFSGSGSGTDFTLKISRVEAEDVGVYYCGQGTQVPYTFGQGTKLEIK
notes: one-arm IgG1
B15: CE115HA000/GLS3000 H27dM (antibody, IgG1, name in Kabat numbering, V domains shown)
VH: QVQLVESGGGVVQPGRSLRLSCAASGFTFSNAWMHWVRQAPGKGLEWVAQIKAKSNNYATYYAESVKGRFTISRDDSKNSLYLQMNSLKTEDTAVYYCRYVHYGAYYGVDAWGQGTTVTVSS
VL: DIVMTQSPLSLPVTPGEPASISCRSSQSLVMSNRNTYLHWYQQKPGQAPRLLIYKVSNRFSGVPDRFSGSGSGTDFTLKISRVEAEDVGVYYCGQGTQVPYTFGQGTKLEIK
notes: one-arm IgG1
B16: CE115HA000/GLS3000 H27dQ (antibody, IgG1, name in Kabat numbering, V domains shown)
VH: QVQLVESGGGVVQPGRSLRLSCAASGFTFSNAWMHWVRQAPGKGLEWVAQIKAKSNNYATYYAESVKGRFTISRDDSKNSLYLQMNSLKTEDTAVYYCRYVHYGAYYGVDAWGQGTTVTVSS
VL: DIVMTQSPLSLPVTPGEPASISCRSSQSLVQSNRNTYLHWYQQKPGQAPRLLIYKVSNRFSGVPDRFSGSGSGTDFTLKISRVEAEDVGVYYCGQGTQVPYTFGQGTKLEIK
notes: one-arm IgG1
B17: CE115HA000/GLS3000 H34A (antibody, IgG1, name in Kabat numbering, V domains shown)
VH: QVQLVESGGGVVQPGRSLRLSCAASGFTFSNAWMHWVRQAPGKGLEWVAQIKAKSNNYATYYAESVKGRFTISRDDSKNSLYLQMNSLKTEDTAVYYCRYVHYGAYYGVDAWGQGTTVTVSS
VL: DIVMTQSPLSLPVTPGEPASISCRSSQSLVHSNRNTYLAWYQQKPGQAPRLLIYKVSNRFSGVPDRFSGSGSGTDFTLKISRVEAEDVGVYYCGQGTQVPYTFGQGTKLEIK
notes: one-arm IgG1
B18: CE115HA000/GLS3000 H27dN (antibody, IgG1, name in Kabat numbering, V domains shown)
VH: QVQLVESGGGVVQPGRSLRLSCAASGFTFSNAWMHWVRQAPGKGLEWVAQIKAKSNNYATYYAESVKGRFTISRDDSKNSLYLQMNSLKTEDTAVYYCRYVHYGAYYGVDAWGQGTTVTVSS
VL: DIVMTQSPLSLPVTPGEPASISCRSSQSLVNSNRNTYLHWYQQKPGQAPRLLIYKVSNRFSGVPDRFSGSGSGTDFTLKISRVEAEDVGVYYCGQGTQVPYTFGQGTKLEIK
notes: one-arm IgG1
B19: CE115HA000/GLS3000 H27dG (antibody, IgG1, name in Kabat numbering, V domains shown)
VH: QVQLVESGGGVVQPGRSLRLSCAASGFTFSNAWMHWVRQAPGKGLEWVAQIKAKSNNYATYYAESVKGRFTISRDDSKNSLYLQMNSLKTEDTAVYYCRYVHYGAYYGVDAWGQGTTVTVSS
VL: DIVMTQSPLSLPVTPGEPASISCRSSQSLVGSNRNTYLHWYQQKPGQAPRLLIYKVSNRFSGVPDRFSGSGSGTDFTLKISRVEAEDVGVYYCGQGTQVPYTFGQGTKLEIK
notes: one-arm IgG1
B20: CE115HA000/GLS3000 H27dL (antibody, IgG1, name in Kabat numbering, V domains shown)
VH: QVQLVESGGGVVQPGRSLRLSCAASGFTFSNAWMHWVRQAPGKGLEWVAQIKAKSNNYATYYAESVKGRFTISRDDSKNSLYLQMNSLKTEDTAVYYCRYVHYGAYYGVDAWGQGTTVTVSS
VL: DIVMTQSPLSLPVTPGEPASISCRSSQSLVLSNRNTYLHWYQQKPGQAPRLLIYKVSNRFSGVPDRFSGSGSGTDFTLKISRVEAEDVGVYYCGQGTQVPYTFGQGTKLEIK
notes: one-arm IgG1
B21: CE115HA000/GLS3000 H27dV (antibody, IgG1, name in Kabat numbering, V domains shown)
VH: QVQLVESGGGVVQPGRSLRLSCAASGFTFSNAWMHWVRQAPGKGLEWVAQIKAKSNNYATYYAESVKGRFTISRDDSKNSLYLQMNSLKTEDTAVYYCRYVHYGAYYGVDAWGQGTTVTVSS
VL: DIVMTQSPLSLPVTPGEPASISCRSSQSLVVSNRNTYLHWYQQKPGQAPRLLIYKVSNRFSGVPDRFSGSGSGTDFTLKISRVEAEDVGVYYCGQGTQVPYTFGQGTKLEIK
notes: one-arm IgG1

These binders were tested against T1, CD3 epsilon homodimer protein (UniProt P07766 23-126) (assay: SPR, antibody over immobilised CD3e homodimer;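 further: SPR at 25 °C with CD3 epsilon homodimer amine-coupled to a CM4 sensor chip and antibody flowed over as analyte in HBS-EP+ running buffer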).
T1 construct: also called CD3 (CD3 epsilon)
T1 sequence (P07766 23-126): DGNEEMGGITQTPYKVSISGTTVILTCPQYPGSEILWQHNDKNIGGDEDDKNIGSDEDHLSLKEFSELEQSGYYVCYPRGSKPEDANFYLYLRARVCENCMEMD

Compared with B1, B2 is higher in “KD ratio to GLS3000” value: 23.1 for the first, 13000 for the second.

Compared with B3, B4 is lower in “KD ratio to GLS3000” value: 3.8 for the first, 1.98 for the second.

Compared with B5, B6 is lower in “KD ratio to GLS3000” value: 42.3 for the first, 9.21 for the second.

Compared with B7, B8 is lower in “KD ratio to GLS3000” value: 33.8 for the first, 3.05 for the second.

Going from B9 to B10, the “KD ratio to GLS3000” value falls from 2.35 to 1.86.

First: B11
Second: B12
The “KD ratio to GLS3000” value of the first is lower: 2.57 for the first, 7.77 for the second.

Compared with B13, B14 is lower in “KD ratio to GLS3000” value: 39.9 for the first, 2.05 for the second.

First: B15
Second: B16
The “KD ratio to GLS3000” value of the first is lower: 3.43 for the first, 7.48 for the second.

Compared with B17, B18 is higher in “KD ratio to GLS3000” value: 1.18 for the first, 3.43 for the second.

Compared with B19, B20 is lower in “KD ratio to GLS3000” value: 3.51 for the first, 3.37 for the second.

In the case of B21, the “KD ratio to GLS3000” value is reported as 354.
